Laboratory results taken from paper PMC4431682, “Est10: A Novel Alkaline Esterase Isolated from Bovine Rumen Belonging to the New Family XV of Lipolytic Enzymes” (PLoS ONE, 2015).

Columns and labels:
Experiment in all cases: purified protein
Format in all cases: biochemical, uncultured bacterium
Details in all cases: hydrolysis, conditions of the kinetic assay not stated separately (general pNP assay: 100 mM sodium phosphate pH 8.0, Triton, 40 °C)
[1] = test system: T1, CCCCCCCCCC(=O)Oc1ccc([N+](=O)[O-])cc1
T1 construct: whole 367-residue ORF with its putative signal peptide, N-terminal 6xHis (pET14b), E. coli BL21(DE3) pLysS, Ni-NTA; forward primer codes MIMKKQNFF; GHSQG with Ser189

[2] = test system: T2, CCCC(=O)Oc1ccc([N+](=O)[O-])cc1
T2 construct: whole 367-residue ORF with its putative signal peptide, N-terminal 6xHis (pET14b), E. coli BL21(DE3) pLysS, Ni-NTA; forward primer codes MIMKKQNFF; GHSQG with Ser189

[3] = test system: T3, CC(=O)Oc1ccc([N+](=O)[O-])cc1
T3 construct: whole 367-residue ORF with its putative signal peptide, N-terminal 6xHis (pET14b), E. coli BL21(DE3) pLysS, Ni-NTA; forward primer codes MIMKKQNFF; GHSQG with Ser189

With Est10 (uncultured bacterium) the Km [1] was 0.35 (0.06) mM, the kcat [1] was 0.72 s⁻¹ and the kcat/Km [1] was 2100 M⁻¹ s⁻¹. The Km [2] was 0.16 (0.02) mM, the kcat [2] was 3.1 s⁻¹ and the kcat/Km [2] was 19000 M⁻¹ s⁻¹. The Km [3] was 0.3 (0.1) mM, the kcat [3] was 0.22 s⁻¹ and the kcat/Km [3] was 800 M⁻¹ s⁻¹.
